Test results taken from article PMC3787081, “The Heteromultimeric Debranching Enzyme Involved in Starch Synthesis in Arabidopsis Requires Both Isoamylase1 and Isoamylase2 Subunits for Complex Stability and Activity” (PLoS ONE, 2013).

Target: T1, ISA2-TAP (ISA2 with a C-terminal tandem affinity purification tag) (Arabidopsis, UniProt Q8L735 71-882)
T1 construct: Isoamylase 2 (ISA2) of Arabidopsis thaliana; the chloroplast transit peptide is probably removed in the plant (surmised); also called TAP-tagged ISA2; ISA2-TAP tagged protein; source: Arabidopsis isa2-1 plants transformed with 35S::ISA2-TAP, leaf extract
T1 sequence (looked up): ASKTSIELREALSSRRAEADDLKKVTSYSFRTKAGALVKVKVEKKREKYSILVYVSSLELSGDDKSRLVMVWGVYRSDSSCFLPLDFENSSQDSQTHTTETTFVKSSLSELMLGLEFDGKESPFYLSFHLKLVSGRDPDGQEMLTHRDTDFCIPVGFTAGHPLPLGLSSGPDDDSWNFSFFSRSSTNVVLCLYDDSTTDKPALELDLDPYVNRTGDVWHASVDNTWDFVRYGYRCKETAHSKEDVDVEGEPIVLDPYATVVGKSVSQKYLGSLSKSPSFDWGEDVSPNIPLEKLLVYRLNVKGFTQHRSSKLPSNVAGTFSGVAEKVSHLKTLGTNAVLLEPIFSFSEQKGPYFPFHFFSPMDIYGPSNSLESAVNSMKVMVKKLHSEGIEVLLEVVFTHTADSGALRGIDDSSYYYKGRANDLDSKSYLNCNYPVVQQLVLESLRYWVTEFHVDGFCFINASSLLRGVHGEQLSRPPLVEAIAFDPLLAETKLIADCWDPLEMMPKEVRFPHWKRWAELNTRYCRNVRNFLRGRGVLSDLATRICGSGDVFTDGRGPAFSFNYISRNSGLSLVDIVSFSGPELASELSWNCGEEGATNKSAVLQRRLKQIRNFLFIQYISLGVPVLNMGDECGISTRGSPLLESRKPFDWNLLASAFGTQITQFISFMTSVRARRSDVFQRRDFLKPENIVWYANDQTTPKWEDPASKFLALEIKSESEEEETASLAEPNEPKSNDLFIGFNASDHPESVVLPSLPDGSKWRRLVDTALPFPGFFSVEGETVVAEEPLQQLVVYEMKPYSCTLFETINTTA
Test: affinity purification with mass spectrometry; tandem affinity purification of ISA2-TAP from leaf extracts (IgG-Sepharose, TEV elution, Calmodulin Sepharose with 2 mM CaCl2, EGTA elution); SDS-PAGE, silver stain, in-gel tryptic digestion, LC-MS/MS; wild-type extracts as control
Conditions: partners not purified

B1: Isoamylase1 (ISA1), Arabidopsis, endogenous (enzyme, UniProt O04196 44-783, looked up)
chain: AKDRRSNEAENIAVVEKPLKSDRFFISDGLPSPFGPTVRDDGVNFSVYSTNSVSATICLISLSDLRQNKVTEEIQLDPSRNRTGHVWHVFLRGDFKDMLYGYRFDGKFSPEEGHYYDSSNILLDPYAKAIISRDEFGVLGPDDNCWPQMACMVPTREEEFDWEGDMHLKLPQKDLVIYEMHVRGFTRHESSKIEFPGTYQGVAEKLDHLKELGINCIELMPCHEFNELEYYSYNTILGDHRVNFWGYSTIGFFSPMIRYASASSNNFAGRAINEFKILVKEAHKRGIEVIMDVVLNHTAEGNEKGPIFSFRGVDNSVYYMLAPKGEFYNYSGCGNTFNCNHPVVRQFILDCLRYWVTEMHVDGFRFDLGSIMSRSSSLWDAANVYGADVEGDLLTTGTPISCPPVIDMISNDPILRGVKLIAEAWDAGGLYQVGMFPHWGIWSEWNGKFRDVVRQFIKGTDGFSGAFAECLCGSPNLYQGGRKPWHSINFICAHDGFTLADLVTYNNKNNLANGEENNDGENHNYSWNCGEEGDFASISVKRLRKRQMRNFFVSLMVSQGVPMIYMGDEYGHTKGGNNNTYCHDNYMNYFRWDKKEEAHSDFFRFCRILIKFRDECESLGLNDFPTAKRLQWHGLAPEIPNWSETSRFVAFSLVDSVKKEIYVAFNTSHLATLVSLPNRPGYRWEPFVDTSKPSPYDCITPDLPERETAMKQYRHFLDANVYPMLSYSSIILLLSPIKDP
notes: Isoamylase 1 (ISA1) of Arabidopsis thaliana, endogenous protein in soluble leaf extracts; Chloroplast protein; also called AtISA1; source: endogenous, Arabidopsis leaf extracts (wild type and ISA2-TAP plants)
- stoichiometry N: 1
